Results reported in the supplement of paper PMC7877785.
± gives the uncertainty stated by the source.

Assay: self-splicing fitness, log relative to wild type (ln ratio); higher = more splicing; Tetrahymena group I intron in knt gene, E. coli kanamycin selection, DiMSum; sequences stand for … in CUCUCU…GGAGGGAAAAGUUAUCAGGCAUGCACCUGGUAGCUAGUCUUUAAACCAAUAGAUUGCAUCGGUUUAAAAGGCAAGACCGUCAAAUUGCGGGAAAGGGGUCAACAGCCGUUCAGUACCAAGUCUCAGGGGAAACUUUGAGAUGGCCUUGCAAAGGGUAUGGUAAUAAGCUGACGGACAUGGUCCUAACCACGCAGCCAAGUCCUAAGUCAACAGAUCUUCUGUUGAUAUGGAUGCAGUUCACAGACUAAAUGUCGGUCGGGGAAGAUGUAUUCUUCUCAUAAGAUAUAGUCGGACCUCUCCUUAAUGGGAGCUAGCGGAUGAAGUGAUGCAACACUGGAGCCGCUGGGAACUAAUUUGUAUGCGAAAGUAUAUUGAUUAGUUUUGGAGUACUCGUGGUCG
Method in brief: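 A randomised library covering all eight P1ex-region intron nucleotides was built with the intron in the knt kanamycin-resistance gene on pET-22b(+) and held in E. coli BL21(DE3). Cells were grown overnight at 37°C or 30°C on LB agar, with or without 25 μg/mL kanamycin, plus 100 μg/mL carbenicillin, 50 μM IPTG and 0.2% rhamnose, and pooled colonies were amplicon-sequenced on an Illumina HiSeq 2500. DiMSum fitness is the error-weighted combination of wild-type-normalised replicate fold changes, kanamycin versus none.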

| Sequence | self-splicing fitness (ln) (30 °C) | self-splicing fitness (ln) (37 °C) |
| --- | --- | --- |
| UCCUAGCAAUAUUACGAAUA | -2.81 ± 0.26 | -1.98 ± 0.34 |
| UCCUAGCAAUAUUACGACGU | -0.558 ± 0.098 | -0.499 ± 0.11 |
| UCCUAGCAAUAUUACGAGCA | -1.64 ± 0.42 | -1.11 ± 0.23 |
| UCCUAGCAAUAUUACGAUCU | – | -1.69 ± 0.37 |
| UCCUAGCAAUAUUACGCAUU | -3.92 ± 0.21 | -1.81 ± 0.11 |
| UCCUAGCAAUAUUACGCCUC | -2.62 ± 0.27 | -2.29 ± 0.39 |
| UCCUAGCAAUAUUACGCUGC | – | -2.02 ± 0.29 |
| UCCUAGCAAUAUUACGGAAU | -3.08 ± 0.15 | -2.1 ± 0.21 |
| UCCUAGCAAUAUUACGGAGA | -0.637 ± 0.072 | -0.626 ± 0.079 |
| UCCUAGCAAUAUUACGGUUC | -3.05 ± 0.2 | -1.55 ± 0.17 |
| UCCUAGCAAUAUUACGGUUG | -4.08 ± 0.22 | -1.81 ± 0.14 |
| UCCUAGCAAUAUUACGUCUA | – | -2.69 ± 0.38 |
| UCCUAGCAAUAUUACGUCUC | -3.82 ± 0.23 | -2.52 ± 0.21 |
| UCCUAGCAAUAUUACGUGGA | -2.37 ± 0.16 | -2.74 ± 0.23 |
| UCCUAGCAAUAUUACGUGGC | -3.85 ± 0.24 | -1.78 ± 0.2 |
| UCCUAGCAAUAUUACGUGGU | -2.53 ± 0.1 | -1.38 ± 0.096 |
| UCCUAGCAAUAUUACGUUGA | -0.805 ± 0.071 | 0.0396 ± 0.089 |
| UCGAAGCAAUAUUACGAAAA | -3.1 ± 0.3 | -1.54 ± 0.21 |
| UCGAAGCAAUAUUACGAAGG | -1.84 ± 0.21 | -2.47 ± 0.33 |
| UCGAAGCAAUAUUACGAAUU | -3.1 ± 0.37 | -2.21 ± 0.38 |
| UCGAAGCAAUAUUACGACGG | -1.8 ± 0.17 | -0.892 ± 0.18 |
| UCGAAGCAAUAUUACGAGUC | -3.45 ± 0.42 | – |

| Sequence | self-splicing fitness (ln) (30 °C) | self-splicing fitness (ln) (37 °C) |
| --- | --- | --- |
| UCGAAGCAAUAUUACGAUGA | -0.316 ± 0.068 | 0.368 ± 0.074 |
| UCGAAGCAAUAUUACGCACA | -1.23 ± 0.13 | -0.472 ± 0.16 |
| UCGAAGCAAUAUUACGCAUC | -1.47 ± 0.29 | -2.36 ± 0.3 |
| UCGAAGCAAUAUUACGCCGU | -0.599 ± 0.12 | -0.739 ± 0.12 |
| UCGAAGCAAUAUUACGCCUU | -3.4 ± 0.25 | -3.23 ± 0.26 |
| UCGAAGCAAUAUUACGCGUU | -3.93 ± 0.21 | -1.47 ± 0.18 |
| UCGAAGCAAUAUUACGCUAG | -2.16 ± 0.14 | -0.234 ± 0.14 |
| UCGAAGCAAUAUUACGCUGG | -1.85 ± 0.13 | -2.04 ± 0.16 |
| UCGAAGCAAUAUUACGGAAU | -3.57 ± 0.24 | -1.91 ± 0.23 |
| UCGAAGCAAUAUUACGGGCG | 0.0324 ± 0.093 | -0.219 ± 0.1 |
| UCGAAGCAAUAUUACGUAUA | -3.1 ± 0.22 | -1.58 ± 0.18 |
| UCGAAGCAAUAUUACGUCGU | -2.65 ± 0.2 | -1.34 ± 0.15 |
| UCGAAGCAAUAUUACGUGAA | -2.53 ± 0.13 | -1.13 ± 0.12 |
| UCGAAGCAAUAUUACGUGAU | -2.71 ± 0.16 | -1.37 ± 0.17 |
| UCGCAGCAAUAUUACGAAAA | -3.16 ± 0.43 | -2.2 ± 0.46 |
| UCGCAGCAAUAUUACGAGAU | -3.01 ± 0.25 | -1.86 ± 0.25 |
| UCGCAGCAAUAUUACGAGCG | -1.97 ± 0.12 | -0.806 ± 0.13 |
| UCGCAGCAAUAUUACGAGGC | -3.12 ± 0.24 | -3.16 ± 0.26 |
| UCGCAGCAAUAUUACGAGGG | -2.72 ± 0.11 | -1.65 ± 0.13 |
| UCGCAGCAAUAUUACGAUAA | -1.91 ± 0.14 | -0.243 ± 0.14 |
| UCGCAGCAAUAUUACGCAGU | -3.58 ± 0.2 | -2.35 ± 0.2 |
